Laboratory results from article PMC5840397.

Assays:
[1] = molecular target: C-terminally His-tagged human ECRG4(32–148) (human) (UniProt Q9H1Z8); assay: SPR; ProteOn XPR36, GLM chip; His-tagged ECRG4 peptides captured by immobilised anti-His antibody; 2 × CTLD–Fc injected at 15.6–250 nM, 60 s association, 120 s dissociation; HBS (10 mM HEPES pH 7.4, 150 mM NaCl, 3 mM EDTA, 0.05% P20); Langmuir model
[2] = molecular target: C-terminally His-tagged human ECRG4(71–132) (human) (UniProt Q9H1Z8); assay: as above
[3] = molecular target: C-terminally His-tagged human ECRG4(71–148) (human) (UniProt Q9H1Z8); assay: as above
LOX-1 (Homo sapiens) = LOX-1 (Homo sapiens) (UniProt P78380); conditions: cited from earlier work

C-terminally His-tagged human ECRG4(32–148) (human), sequence (Q9H1Z8 32-148): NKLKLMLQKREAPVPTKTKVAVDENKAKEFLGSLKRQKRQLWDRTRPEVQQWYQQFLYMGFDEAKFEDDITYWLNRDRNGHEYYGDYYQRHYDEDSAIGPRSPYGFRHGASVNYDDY
C-terminally His-tagged human ECRG4(71–132) (human), sequence (Q9H1Z8 71-132): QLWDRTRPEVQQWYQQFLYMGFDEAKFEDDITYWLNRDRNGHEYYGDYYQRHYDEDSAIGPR
CRP, sequence (P02741 19-224): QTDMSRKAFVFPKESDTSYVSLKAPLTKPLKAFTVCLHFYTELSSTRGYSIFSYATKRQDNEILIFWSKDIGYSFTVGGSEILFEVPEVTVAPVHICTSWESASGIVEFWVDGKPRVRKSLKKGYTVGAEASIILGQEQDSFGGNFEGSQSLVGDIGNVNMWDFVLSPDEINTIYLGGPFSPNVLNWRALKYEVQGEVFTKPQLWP
C-terminally His-tagged human ECRG4(71–148) (human), sequence (Q9H1Z8 71-148): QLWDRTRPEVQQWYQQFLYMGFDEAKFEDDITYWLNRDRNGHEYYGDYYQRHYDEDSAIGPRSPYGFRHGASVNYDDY

2 × CTLD–Fc (two human LOX-1 CTLDs in tandem, Fc-fused) (Fc fusion)
Kd [1]: 10 nM
Kd [2]: 10 nM
Kd [3]: 10 nM

CRP (from UniProt P02741)
Kd (LOX-1 (Homo sapiens)): 160 nM
